Paper PMC9634608, “Multi-crystal native-SAD phasing at 5 keV with a helium environment” (IUCrJ, 2022)

Biological target: the molecule itself
Assay: crystal structure; native-SAD at 5 keV with a helium path, 18 microcrystals, space group R3, 2.6 Å; crystals grown by sitting drop at 4°C in 0.1 M HEPES pH 7.8, 1 mM ZnSO4, 27–29% PEG 400, protein in β-OG

B1: TehA (natural protein)
chain: MNITKPFPLPTGYFGIPLGLAALSLAWFHLENLFPAARMVSDVLGIVASAVWILFILMYAYKLRYYFEEVRAEYHSPVRFSFIALIPITTMLVGDILYRWNPLIAEVLIWIGTIGQLLFSTLRVSELWQGGVFEQKSTHPSFYLPAVAANFTSASSLALLGYHDLGYLFFGAGMIAWIIFEPVLLQHLRISSLEPQFRATMGIVLAPAFVCVSAYLSINHGEVDTLAKILWGYGFLQLFFLLRLFPWIVEKGLNIGLWAFSFGLASMANSATAFYHGNVLQGVSIFAFVFSNVMIGLLVLMTIYKLTKGQFFLK
notes: TehA, a bacterial homolog of the plant nitrate/chloride channel SLAC1; construct as described by Chen et al. (2010); The printed length of 314 residues may differ from the length of the UniProt entry; also called membrane protein TehA; source: E. coli BL21(DE3) pLysS, purified (IMAC, size-exclusion chromatography); not shown: His tag, C-terminal, cleaved
- stoichiometry N: 3
